Self-cleavage data for 78 variants are collected here from the RNAGym collection of RNA variant scans (doi:10.7554/elife.80360).

To fix the notation:
B1: CPEB3 Ribozyme (parent)
chain: GGGGGCCACAGCAGAAGCGUUCACGUCGCGGCCCCUGUCAGAUUCUGGUGAAUCUGCGAAUUCUGCUGU

In this data set the parent is B1. The data set is described as follows: self-cleavage, relative activity (ratio to wild type); higher = more cleavage; co-transcriptional.
As for GGGGGCCACAGCAGAAGCGUUCACGUCGCGGCCCCGGUCAGAUUCUGGUGAAUCUGCCAAUUCUGCUGU, the self-cleavage was found to be 0.277.

As for GGGGGCCACAGCAGAAGCGUUCACGUCGCGGCCCCGGUCAGAUUCUGGUGAAUCUGCAAAUUCUGCUGU, the self-cleavage amounted to 0.24.

Consider GGGGGCCACAGCAGAAGCGUUCACGUCGCGGCCCCCGUCAGAUUCUGGGGAAUCUGCGAAUUCUGCUGU, for which the self-cleavage came to 0.848.

With GGGGGCCACAGCAGAAGCGUUCACGUCGCGGCCCCCGUCAGAUUCUGGAGAAUCUGCGAAUUCUGCUGU, the self-cleavage was 0.923.

Take GGGGGCCACAGCAGAAGCGUUCACGUCGCGGCCCCCGUCAGAUUCUGGCGAAUCUGCGAAUUCUGCUGU: the self-cleavage worked out at 0.863.

GGGGGCCACAGCAGAAGCGUUCACGUCGCGGCCCCGGUCGGAUUCUGGUGAAUCUGCGAAUUCUGCUGU: the self-cleavage stood at 0.219.

With GGGGGCCACAGCAGAAGCGUUCACGUCGCGGCCCCGGUCCGAUUCUGGUGAAUCUGCGAAUUCUGCUGU, the self-cleavage came out at 0.236.

With GGGGGCCACAGCAGAAGCGUUCACGUCGCGGCCCCGGUCAGAUUCUGAUGAAUCUGCGAAUUCUGCUGU, the self-cleavage was 0.236.

For GGGGGCCACAGCAGAAGCGUUCACGUCGCGGCCCCGGUCAGAUUCUGCUGAAUCUGCGAAUUCUGCUGU, the self-cleavage was found to be 0.266.

Consider GGGGGCCACAGCAGAAGCGUUCACGUCGCGGCCCCCGUCAGAUUCUGCUGAAUCUGCGAAUUCUGCUGU, for which the self-cleavage was 0.948.

GGGGGCCACAGCAGAAGCGUUCACGUCGCGGCCCCCGUCAGAUUCUGAUGAAUCUGCGAAUUCUGCUGU: the self-cleavage was found to be 0.94.

With GGGGGCCACAGCAGAAGCGUUCACGUCGCGGCCCCCGUCAGAUUCUGUUGAAUCUGCGAAUUCUGCUGU, the self-cleavage came to 0.981.

In the case of GGGGGCCACAGCAGAAGCGUUCACGUCGCGGCCCCGGUCAGAUUCUGGUGAAUCUGCGAUUUCUGCUGU, the self-cleavage was 0.181.

On to GGGGGCCACAGCAGAAGCGUUCACGUCGCGGCCCCGGUCAGAUUCUGGUGAAUCUGGGAAUUCUGCUGU, for which the self-cleavage amounted to 0.109.

Take GGGGGCCACAGCAGAAGCGUUCACGUCGCGGCCCCCGUCAGAUUCUGGUGAAUCUGCGAAUUCGGCUGU: the self-cleavage amounted to 0.762.

With GGGGGCCACAGCAGAAGCGUUCACGUCGCGGCCCCCGUCAGAUUCUGGUGAAUCUGCGAAUUCCGCUGU, the self-cleavage was found to be 0.823.

On to GGGGGCCACAGCAGAAGCGUUCACGUCGCGGCCCCGGUGAGAUUCUGGUGAAUCUGCGAAUUCUGCUGU, for which the self-cleavage turned out to be 0.24.

Take GGGGGCCACAGCAGAAGCGUUCACGUCGCGGCCCCGGUAAGAUUCUGGUGAAUCUGCGAAUUCUGCUGU: the self-cleavage turned out to be 0.204.

On to GGGGGCCACAGCAGAAGCGUUCACGUCGCGGCCCCGGUUAGAUUCUGGUGAAUCUGCGAAUUCUGCUGU, for which the self-cleavage was 0.218.

Turning to GGGGGCCACAGCAGAAGCGUUCACGUCGCGGCCCCCGUCAGAUUCUGGUGAAUCUGCGAAUUCUACUGU, the self-cleavage turned out to be 0.67.

For GGGGGCCACAGCAGAAGCGUUCACGUCGCGGCCCCCGUCAGAUUCUGGUGAAUCUGCGAAUUCUCCUGU, the self-cleavage worked out at 0.414.

GGGGGCCACAGCAGAAGCGUUCACGUCGCGGCCCCCGUCAGAUUCUCGUGAAUCUGCGAAUUCUGCUGU: the self-cleavage stood at 0.993.

GGGGGCCACAGCAGAAGCGUUCACGUCGCGGCCCCCGUCAGAUUCUUGUGAAUCUGCGAAUUCUGCUGU: the self-cleavage was 0.892.

Regarding GGGGGCCACAGCAGAAGCGUUCACGUCGCGGCCCCCGUCAGAUUCUAGUGAAUCUGCGAAUUCUGCUGU, the self-cleavage turned out to be 0.953.

With GGGGGCCACAGCAGAAGCGUUCACGUCGCGGCCCCCGUCAGAUUCUGGUGAAUCUACGAAUUCUGCUGU, the self-cleavage was determined as 0.814.

In the case of GGGGGCCACAGCAGAAGCGUUCACGUCGCGGCCCCCGUCAGAUUCUGGUGAAUCUCCGAAUUCUGCUGU, the self-cleavage turned out to be 0.46.

As to GGGGGCCACAGCAGAAGCGUUCACGUCGCGGCCCCCGUCAGAUUCUGGUGAAUCUUCGAAUUCUGCUGU, the self-cleavage came to 0.696.

Regarding GGGGGCCACAGCAGAAGCGUUCACGUCGCGGCCCCCGUCAGAUUCUGGUGAACCUGCGAAUUCUGCUGU, the self-cleavage is 0.806.

With GGGGGCCACAGCAGAAGCGUUCACGUCGCGGCCCCCGUCAGAUUCUGGUGAAGCUGCGAAUUCUGCUGU, the self-cleavage stood at 0.544.

In the case of GGGGGCCACAGCAGAAGCGUUCACGUCGCGGCCCCCGUCAGAUUCUGGUGAAACUGCGAAUUCUGCUGU, the self-cleavage worked out at 0.767.

Consider GGGGGCCACAGCAGAAGCGUUCACGUCGCGGCCCCCGUCAGAUUCUGGUCAAUCUGCGAAUUCUGCUGU, for which the self-cleavage turned out to be 0.895.

As to GGGGGCCACAGCAGAAGCGUUCACGUCGCGGCCCCGGUCAGAUUCUGGUUAAUCUGCGAAUUCUGCUGU, the self-cleavage was determined as 0.306.

As for GGGGGCCACAGCAGAAGCGUUCACGUCGCGGCCCCGGUCAGAUUCUGGUGAAUCUACGAAUUCUGCUGU, the self-cleavage is 0.246.

GGGGGCCACAGCAGAAGCGUUCACGUCGCGGCCCCGGUCAGAUUCUGGUGAAUCUUCGAAUUCUGCUGU: the self-cleavage came to 0.19.

As for GGGGGCCACAGCAGAAGCGUUCACGUCGCGGCCCCCGUCAGAUUCUGGUGAAUCUGCGAAUUCUGCGGU, the self-cleavage stood at 0.949.

As to GGGGGCCACAGCAGAAGCGUUCACGUCGCGGCCCCGGUCAGAUUCUGGUGAAUCUGCGAAUUUUGCUGU, the self-cleavage came to 0.315.

With GGGGGCCACAGCAGAAGCGUUCACGUCGCGGCCCCGGUCAGAUUCUGGUGAAUCUGCGAAUUGUGCUGU, the self-cleavage was determined as 0.181.

Regarding GGGGGCCACAGCAGAAGCGUUCACGUCGCGGCCCCGGUCACAUUCUGGUGAAUCUGCGAAUUCUGCUGU, the self-cleavage was found to be 0.278.

Regarding GGGGGCCACAGCAGAAGCGUUCACGUCGCGGCCCCGGUCAUAUUCUGGUGAAUCUGCGAAUUCUGCUGU, the self-cleavage turned out to be 0.373.

For the variant GGGGGCCACAGCAGAAGCGUUCACGUCGCGGCCCCGGUCAAAUUCUGGUGAAUCUGCGAAUUCUGCUGU, the self-cleavage is 0.144.

On to GGGGGCCACAGCAGAAGCGUUCACGUCGCGGCCCCCGUCAGAAUCUGGUGAAUCUGCGAAUUCUGCUGU, for which the self-cleavage came out at 0.787.

Take GGGGGCCACAGCAGAAGCGUUCACGUCGCGGCCCCCGUCAGACUCUGGUGAAUCUGCGAAUUCUGCUGU: the self-cleavage stood at 0.856.

Take GGGGGCCACAGCAGAAGCGUUCACGUCGCGGCCCCCGUCAAAUUCUGGUGAAUCUGCGAAUUCUGCUGU: the self-cleavage is 0.507.

Regarding GGGGGCCACAGCAGAAGCGUUCACGUCGCGGCCCCCGUCACAUUCUGGUGAAUCUGCGAAUUCUGCUGU, the self-cleavage came to 0.552.

Regarding GGGGGCCACAGCAGAAGCGUUCACGUCGCGGCCCCCGUCAUAUUCUGGUGAAUCUGCGAAUUCUGCUGU, the self-cleavage came out at 0.664.

As to GGGGGCCACAGCAGAAGCGUUCACGUCGCGGCCCCGGUCAGAUUCUAGUGAAUCUGCGAAUUCUGCUGU, the self-cleavage was 0.252.

As to GGGGGCCACAGCAGAAGCGUUCACGUCGCGGCCCCGGUCAGAUUCUCGUGAAUCUGCGAAUUCUGCUGU, the self-cleavage is 0.293.

With GGGGGCCACAGCAGAAGCGUUCACGUCGCGGCCCCCGUCAGAUUCUGGUGAAUCUGCGAAUUCUGCUAU, the self-cleavage came out at 0.932.

As to GGGGGCCACAGCAGAAGCGUUCACGUCGCGGCCCCCGUCAGAUUCUGGUGAAUCUGCGAAUUCUGCUCU, the self-cleavage is 0.991.

As for GGGGGCCACAGCAGAAGCGUUCACGUCGCGGCCCCGGUCAGAUUCUGGUGAUUCUGCGAAUUCUGCUGU, the self-cleavage was found to be 0.271.

Consider GGGGGCCACAGCAGAAGCGUUCACGUCGCGGCCCCGGUCAGAUUCUGGUGAGUCUGCGAAUUCUGCUGU, for which the self-cleavage came to 0.296.

Consider GGGGGCCACAGCAGAAGCGUUCACGUCGCGGCCCCGGUCAGAUUCUGGUGACUCUGCGAAUUCUGCUGU, for which the self-cleavage worked out at 0.318.

Consider GGGGGCCACAGCAGAAGCGUUCACGUCGCGGCCCCCGGCAGAUUCUGGUGAAUCUGCGAAUUCUGCUGU, for which the self-cleavage came out at 0.244.

Turning to GGGGGCCACAGCAGAAGCGUUCACGUCGCGGCCCCGGUCAGAUUAUGGUGAAUCUGCGAAUUCUGCUGU, the self-cleavage turned out to be 0.276.

Consider GGGGGCCACAGCAGAAGCGUUCACGUCGCGGCCCCGGUCAGAUUGUGGUGAAUCUGCGAAUUCUGCUGU, for which the self-cleavage turned out to be 0.251.

On to GGGGGCCACAGCAGAAGCGUUCACGUCGCGGCCCCCGUCAGAUUCUGGUGAAUCUGCGAAUUCUGCUGC, for which the self-cleavage is 1.05.

Take GGGGGCCACAGCAGAAGCGUUCACGUCGCGGCCCCCGUCAGAUUCUGGUGAAUCUGCGAAUUCUGCUGG: the self-cleavage was 1.02.

With GGGGGCCACAGCAGAAGCGUUCACGUCGCGGCCCCGGUCAGAUUCUGGUGAAUUUGCGAAUUCUGCUGU, the self-cleavage stood at 0.293.

Regarding GGGGGCCACAGCAGAAGCGUUCACGUCGCGGCCCCGGUCAGAUUCUGGUGAAUCUGCGCAUUCUGCUGU, the self-cleavage worked out at 0.182.

As for GGGGGCCACAGCAGAAGCGUUCACGUCGCGGCCCCGGUCAGAUUCUGGUGAAUCUGCGGAUUCUGCUGU, the self-cleavage amounted to 0.238.

Regarding GGGGGCCACAGCAGAAGCGUUCACGUCGCGGCCCCGGUCAGAUUCUGGUGAAUCUGCGUAUUCUGCUGU, the self-cleavage is 0.189.

Regarding GGGGGCCACAGCAGAAGCGUUCACGUCGCGGCCCCCGUCAGAUUCUGGUGAAUCUGCUAAUUCUGCUGU, the self-cleavage stood at 0.963.

As for GGGGGCCACAGCAGAAGCGUUCACGUCGCGGCCCCGGUCAGAUUCUGGUGAAUCUGCGAAUUCUGUUGU, the self-cleavage worked out at 0.22.

In the case of GGGGGCCACAGCAGAAGCGUUCACGUCGCGGCCCCGGUCAGAUUCUGGUGAAUCUGCGAAUUCUGAUGU, the self-cleavage came out at 0.232.

In the case of GGGGGCCACAGCAGAAGCGUUCACGUCGCGGCCCCGGUCAGAUUCUGGUGAAUCUGCGAAUUCUGGUGU, the self-cleavage was found to be 0.167.

Regarding GGGGGCCACAGCAGAAGCGUUCACGUCGCGGCCCCCGUCAGAUUCUGGUGAAUCUGCGAACUCUGCUGU, the self-cleavage came to 0.524.

With GGGGGCCACAGCAGAAGCGUUCACGUCGCGGCCCCCGUCAGAUUCUGGUGAAUCUGCGAAAUCUGCUGU, the self-cleavage amounted to 0.557.

On to GGGGGCCACAGCAGAAGCGUUCACGUCGCGGCCCCCGUCAGAUCCUGGUGAAUCUGCGAAUUCUGCUGU, for which the self-cleavage is 0.688.

For the variant GGGGGCCACAGCAGAAGCGUUCACGUCGCGGCCCCCGUCAGAUGCUGGUGAAUCUGCGAAUUCUGCUGU, the self-cleavage turned out to be 0.859.

For the variant GGGGGCCACAGCAGAAGCGUUCACGUCGCGGCCCCCGUCAGAUACUGGUGAAUCUGCGAAUUCUGCUGU, the self-cleavage was 0.854.

In the case of GGGGGCCACAGCAGAAGCGUUCACGUCGCGGCCCCCGUCAGAUUCUGGUGAAUCUGCGAAUACUGCUGU, the self-cleavage was 0.654.

As for GGGGGCCACAGCAGAAGCGUUCACGUCGCGGCCCCCGUCAGAUUCUGGUGAAUCUGCGAAUGCUGCUGU, the self-cleavage was found to be 0.581.

Turning to GGGGGCCACAGCAGAAGCGUUCACGUCGCGGCCCCGGUCAGGUUCUGGUGAAUCUGCGAAUUCUGCUGU, the self-cleavage stood at 0.225.

Take GGGGGCCACAGCAGAAGCGUUCACGUCGCGGCCCCGAUCAGAUUCUGGUGAAUCUGCGAAUUCUGCUGU: the self-cleavage turned out to be 0.198.

For the variant GGGGGCCACAGCAGAAGCGUUCACGUCGCGGCCCCGCUCAGAUUCUGGUGAAUCUGCGAAUUCUGCUGU, the self-cleavage came out at 0.22.

For the variant GGGGGCCACAGCAGAAGCGUUCACGUCGCGGCCCCGUUCAGAUUCUGGUGAAUCUGCGAAUUCUGCUGU, the self-cleavage stood at 0.199.

Regarding GGGGGCCACAGCAGAAGCGUUCACGUCGCGGCCCCCGUCAGAUUCCGGUGAAUCUGCGAAUUCUGCUGU, the self-cleavage was 0.987.

With GGGGGCCACAGCAGAAGCGUUCACGUCGCGGCCCCCGUCAGAUUCAGGUGAAUCUGCGAAUUCUGCUGU, the self-cleavage was determined as 0.922.
